Measured values published in US20040001835A1, “Prevention or treatment of cancer using integrin alphavbeta3 antagonists in combination with other agents” (MedImmune, Inc., priority 2002, published 2004).

Columns and labels:
[1] = target: human Integrin αVβ3 (human) (UniProt P06756); test: binding of 125I-labeled Vitaxin to M21 human melanoma cells
[2] = target: Hamster Integrin αvβ3 (Hamster); test: flow cytometry, CCL-49 hamster melanoma cells, 0.5 µg antibody per 5x10^5 cells, against isotype matched control
[3] = target: Rabbit Integrin αvβ3 (Rabbit); test: flow cytometry, VX7 rabbit carcinoma cells, 0.5 µg antibody per 5x10^5 cells, against isotype matched control
[4] = target: human Integrin αVβ3 (human) (UniProt P06756); test: flow cytometry, HMVEC endothelial cells, 0.5 µg antibody per 5x10^5 cells, against isotype matched control
[5] = target: human Integrin αVβ3 (human) (UniProt P06756); test: flow cytometry, M21 melanoma cells, 0.5 µg antibody per 5x10^5 cells, against isotype matched control
[6] = target: Rabbit Integrin αvβ3 (Rabbit); test: binding of 125I-labeled Vitaxin to RK1 rabbit kidney epithelium cells
[7] = target: Hamster Integrin αvβ3 (Hamster); test: binding of 125I-labeled Vitaxin to CCL-49 hamster melanoma cells
Rat Integrin αvβ3 (Rat) = Rat Integrin αvβ3 (Rat) (UniProt Q8R2H2); test: flow cytometry, RG2 rat glioma cells, 0.5 µg antibody per 5x10^5 cells, against isotype matched control
Sequence of Rat Integrin αvβ3 (Rat) (Q8R2H2 26-787): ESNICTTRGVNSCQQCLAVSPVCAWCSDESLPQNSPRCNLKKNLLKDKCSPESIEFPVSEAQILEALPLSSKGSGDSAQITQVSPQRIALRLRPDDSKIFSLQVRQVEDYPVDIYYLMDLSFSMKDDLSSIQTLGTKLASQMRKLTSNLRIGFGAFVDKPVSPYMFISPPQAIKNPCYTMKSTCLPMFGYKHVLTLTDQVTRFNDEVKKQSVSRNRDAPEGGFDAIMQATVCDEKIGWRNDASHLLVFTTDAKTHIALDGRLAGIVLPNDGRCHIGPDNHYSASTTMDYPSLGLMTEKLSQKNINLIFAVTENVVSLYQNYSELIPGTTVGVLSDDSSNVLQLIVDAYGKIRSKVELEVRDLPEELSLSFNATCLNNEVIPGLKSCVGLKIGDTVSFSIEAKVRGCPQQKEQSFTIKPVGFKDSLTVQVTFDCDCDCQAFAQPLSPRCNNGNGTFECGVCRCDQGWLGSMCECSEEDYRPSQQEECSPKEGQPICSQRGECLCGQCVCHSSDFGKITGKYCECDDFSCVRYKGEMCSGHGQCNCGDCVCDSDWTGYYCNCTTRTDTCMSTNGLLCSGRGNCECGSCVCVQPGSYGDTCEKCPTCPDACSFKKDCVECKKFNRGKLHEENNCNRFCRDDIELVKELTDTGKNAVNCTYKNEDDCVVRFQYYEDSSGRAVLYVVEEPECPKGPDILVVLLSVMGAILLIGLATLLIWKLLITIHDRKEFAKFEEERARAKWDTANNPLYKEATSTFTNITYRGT

[8] = target: Rabbit Integrin αvβ3 (Rabbit); test: binding of 125I-labeled Vitaxin to VX7 rabbit carcinoma cells
[9] = target: Hamster Integrin αvβ3 (Hamster); test: binding of 125I-labeled Vitaxin to cell lines
[10] = target: Rabbit Integrin αvβ3 (Rabbit); test: binding of 125I-labeled Vitaxin to cell lines
[11] = target: human Integrin αVβ3 (human) (UniProt P06756); test: binding of 125I-labeled Vitaxin to HUVEC primary human endothelium

Sequence of human Integrin αVβ3 (human) (P06756 31-1048, chain 1 of 2): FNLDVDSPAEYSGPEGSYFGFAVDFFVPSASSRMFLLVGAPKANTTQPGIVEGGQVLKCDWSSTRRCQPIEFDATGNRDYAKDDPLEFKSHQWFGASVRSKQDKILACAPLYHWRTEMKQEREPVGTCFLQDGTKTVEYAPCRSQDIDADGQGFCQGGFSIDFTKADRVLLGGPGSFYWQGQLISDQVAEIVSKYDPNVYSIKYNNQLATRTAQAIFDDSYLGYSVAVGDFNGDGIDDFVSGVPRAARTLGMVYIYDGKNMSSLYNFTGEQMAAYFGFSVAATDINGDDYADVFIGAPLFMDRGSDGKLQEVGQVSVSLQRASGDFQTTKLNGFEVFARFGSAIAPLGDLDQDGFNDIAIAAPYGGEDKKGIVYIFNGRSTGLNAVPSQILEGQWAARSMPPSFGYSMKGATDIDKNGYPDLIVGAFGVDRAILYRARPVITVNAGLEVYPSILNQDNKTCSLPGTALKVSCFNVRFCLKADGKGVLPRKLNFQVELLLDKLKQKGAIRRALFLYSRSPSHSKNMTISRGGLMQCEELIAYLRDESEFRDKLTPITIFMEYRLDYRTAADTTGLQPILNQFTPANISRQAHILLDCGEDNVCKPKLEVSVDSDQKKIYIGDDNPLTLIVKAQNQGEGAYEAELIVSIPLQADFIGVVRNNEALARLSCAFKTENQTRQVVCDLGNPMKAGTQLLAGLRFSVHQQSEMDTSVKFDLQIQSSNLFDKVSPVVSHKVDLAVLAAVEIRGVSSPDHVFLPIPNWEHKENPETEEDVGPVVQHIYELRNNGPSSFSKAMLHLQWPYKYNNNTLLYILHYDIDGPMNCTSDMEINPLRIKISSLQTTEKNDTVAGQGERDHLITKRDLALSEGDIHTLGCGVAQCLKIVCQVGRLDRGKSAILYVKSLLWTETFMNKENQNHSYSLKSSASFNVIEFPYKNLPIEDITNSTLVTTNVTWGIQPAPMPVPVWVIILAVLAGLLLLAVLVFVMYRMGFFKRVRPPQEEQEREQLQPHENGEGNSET
Sequence of human Integrin αVβ3 (human) (P05106 27-788, chain 2 of 2, further chain): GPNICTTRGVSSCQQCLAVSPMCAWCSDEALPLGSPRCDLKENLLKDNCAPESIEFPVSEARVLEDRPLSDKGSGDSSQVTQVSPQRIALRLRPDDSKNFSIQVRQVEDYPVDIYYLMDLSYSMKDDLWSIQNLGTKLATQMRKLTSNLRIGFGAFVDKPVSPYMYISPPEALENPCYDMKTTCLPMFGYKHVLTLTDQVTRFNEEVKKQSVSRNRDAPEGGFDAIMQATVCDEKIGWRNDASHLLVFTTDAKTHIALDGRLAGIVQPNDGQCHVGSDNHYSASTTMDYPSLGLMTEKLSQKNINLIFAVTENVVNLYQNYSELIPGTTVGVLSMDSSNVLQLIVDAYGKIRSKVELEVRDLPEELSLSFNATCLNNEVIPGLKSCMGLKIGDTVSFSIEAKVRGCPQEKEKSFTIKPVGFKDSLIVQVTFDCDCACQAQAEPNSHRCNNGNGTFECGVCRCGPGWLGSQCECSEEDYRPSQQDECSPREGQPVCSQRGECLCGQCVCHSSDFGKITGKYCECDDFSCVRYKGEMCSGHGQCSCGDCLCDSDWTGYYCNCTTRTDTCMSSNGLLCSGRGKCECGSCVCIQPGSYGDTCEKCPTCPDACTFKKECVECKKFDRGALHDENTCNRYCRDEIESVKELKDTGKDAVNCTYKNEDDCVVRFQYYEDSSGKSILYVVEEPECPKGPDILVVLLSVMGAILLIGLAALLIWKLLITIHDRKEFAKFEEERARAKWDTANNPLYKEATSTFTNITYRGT

Row | Binding Sites (binding sites) [1] | Kd [1] [nM] | Fold Increase Over Control (mean channel fluorescence) [2] [fold] | Fold Increase Over Control (mean channel fluorescence) [3] [fold] | Fold Increase Over Control (mean channel fluorescence) [4] [fold] | Fold Increase Over Control (mean channel fluorescence) [5] [fold] | Binding Sites (binding sites) [6] | Kd [6] [nM] | Kd [7] [nM] | Fold Increase Over Control (mean channel fluorescence) (Rat Integrin αvβ3 (Rat)) [fold] | Binding Sites (binding sites) [8] | Kd [8] [nM] | fold lower affinity than for human αvβ3 [9] [fold] | fold lower affinity than for human αvβ3 [10] [fold] | Binding Sites (binding sites) [11] | Kd [11] [nM] | Substance
1 | 130000 | 2.2 | 12 | 17 | 8.9 | 73 | 42000 | 23 | 6.9 | 0.95 | 160000 | 8.9 | 2 to 3 | 4 to 10 | 81000 | 3.3 | Vitaxin® (humanized monoclonal antibody MEDI-522)
2 |  |  | 7.2 | 3 | 4.3 | 65 |  |  |  | 2.3 |  |  |  |  |  |  | LM609, mouse anti-human αVβ3 Integrin mAb (antibody)
3 |  |  |  | 1 |  | 0.99 |  |  |  | 11 |  |  |  |  |  |  | F11, mouse anti-rat β3 mAb (antibody)
